In this assay the target is UbxIVa Pro4 (Drosophila melanogaster). Nature of the assay: two-hybrid; LexA-Ubx variant (pLexA) and B42-partner (pB42) co-transformed into S. cerevisiae EGY48 carrying p8op-LacZ; blue/white colonies on X-gal and liquid β-galactosidase (ONPG) assay after galactose induction at 30°C, reported in Miller units.

B1: Cap-binding protein 1 (natural protein)
chain: MSRRRAHDTEDEGYDHRRNKRRRVSENQEIEDRLESLILRVGERSTSSVESNLEGLVSVLEADLGTFRLKILRILSDCAVRMPEKCTVYTTLVGLLNAKNYKFGGEFVDHMVKTFKESLKMCRWDAARYSLRFLADLVNCHVISATSLLQLLDTMIDVSNEDTVPQVRRDWFVFAVLSTLPWVGRDLYEKKESALESLLLRIEVYLNKRSKKHHNALRVWSSDAPHPQEEYLDCLWAQIRKLRQDNWAEKHIPRPYLVFDSILCEALQHNLPTIVPPPHHDNFEYPMPWVVYRMFDYTDCPDGPNLPGAHSIERFLIEEHLHHIIETYHHERKDCAAQLLSFPYKHKIPLEYCIVEVVFAELFHMPTPRYLDICYGSILIELCKLQPATLPQVLAQATEILFMRIDSMNTSCFDRFVNWFSYHLSNFKFTWSWDEWDSCLLLDGEHPRPKFIQEVLQKCLRLSYHQRITEMMPTTYAKLIPLTPVPNYKYANEEAANLPGTTVAHQLVVAIRQKCTPEEVVNILKDIPNSGYSGEEMSDGSFNALKIDVFVQTLLNLGSKSFSHSFAAISKFHSVFRALAETEEAQICILHNIFELWSSHQQMMVVLIDKLLKLQIVDCSAVATWIFSKEMTGEFTKLYLWEILHLTIKKMNKHVIKLNTELSEAKEKLAKADSSSSDSEDDSSHKRKKPITHADKPSEEVVERMEEKLEAANVNQKRLFLIVFQRFIMILSEHLLRSDTDGRDPDTDWYRWTIGRLQQVFLMHHEQVQKYSSTLETLLFTSDLDTHILEVFQQFVALRA
B1: the percent of binding lost relative to UbxIb Pro4 came to 85%.

B2: Armadillo (natural protein)
chain: MSYMPAQNRTMSHNNQYNPPDLPPMVSAKEQTLMWQQNSYLGDSGIHSGAVTQVPSLSGKEDEEMEGDPLMFDLDTGFPQNFTQDQVDDMNQQLSQTRSQRVRAAMFPETLEEGIEIPSTQFDPQQPTAVQRLSEPSQMLKHAVVNLINYQDDAELATRAIPELIKLLNDEDQVVVSQAAMMVHQLSKKEASRHAIMNSPQMVAALVRAISNSNDLESTKAAVGTLHNLSHHRQGLLAIFKSGGIPALVKLLSSPVESVLFYAITTLHNLLLHQDGSKMAVRLAGGLQKMVTLLQRNNVKFLAIVTDCLQILAYGNQESKLIILASGGPNELVRIMRSYDYEKLLWTTSRVLKVLSVCSSNKPAIVDAGGMQALAMHLGNMSPRLVQNCLWTLRNLSDAATKVEGLEALLQSLVQVLGSTDVNVVTCAAGILSNLTCNNQRNKATVCQVGGVDALVRTIINAGDREEITEPAVCALRHLTSRHVDSELAQNAVRLNYGLSVIVKLLHPPSRWPLIKAVIGLIRNLALCPANHAPLREHGAIHHLVRLLMRAFQDTERQRSSIATTGSQQPSAYADGVRMEEIVEGTVGALHILARESHNRALIRQQSVIPIFVRLLFNEIENIQRVAAGVLCELAADKEGAEIIEQEGATGPLTDLLHSRNEGVATYAAAVLFRMSEDKPQDYKKRLSIELTNSLLREDNNIWANADLGMGPDLQDMLGPEEAYEGLYGQGPPSVHSSHGGRAFHQQGYDTLPIDSMQGLEISSPVGGGGAGGAPGNGGAVGGASGGGGNIGAIPPSGAPTSPYSMDMDVGEIDAGALNFDLDAMPTPPNDNNNLAAWYDTDC
B2 came in with a percent of binding lost relative to UbxIb Pro4 of 60%.

Values taken from PMC4186791.
